From patent US20260102487A1 (Amgen, published 2026)

B1: BsAb-2 (IL2RB_F09G**IL2RG_F16B) (bispecific antibody, human IgG4, V domains shown)
V domain 1: QVQLQESGPGLVKSSETLSLTCTVSGGSISSSDWWSWVRQPPGKGLEWIGEIDHSGSTNYNPSLMSRVTISVDKSKNQFSLKLSSVTAADTAVYFCARGSWELTDAFDIRGQGTLVTVSS
V domain 2: QVQLVESGGGLVKPGGSLRLSCAASGFTFSDYYMSWIRQAPGKGLEWVSYISSSGSTIYYADSVKGRFTISRDNAKNSLYLQMNSLRAEDTAVYYCARGDAVSITGDYRGQGTLVTVSS
notes: Heavy chain-only bispecific on silenced, stabilised human IgG4 Fc, knobs-into-holes, no light chains; not shown: C-terminal His-tag on the knob chain
B2: BsAb-4 (IL2RB_F09G**IL2RG_F18A) (bispecific antibody, human IgG4, V domains shown)
V domain 1: QVQLQESGPGLVKSSETLSLTCTVSGGSISSSDWWSWVRQPPGKGLEWIGEIDHSGSTNYNPSLMSRVTISVDKSKNQFSLKLSSVTAADTAVYFCARGSWELTDAFDIRGQGTLVTVSS
V domain 2: QVQLVESGGDLVKPGGSLRLSCAASGFTFSDYYMSWLRQAPGKELEWVSHISSSGTTTYYADSVEGRFTITRDNAKNSLYLQMNSLRAEDTAVYYCARGAAVAPGFDSRGQGTLVTVSS
notes: as for B1
B3: BsAb-6 (IL2RB_F18E**IL2RG_F16A) (bispecific antibody, human IgG4, V domains shown)
V domain 1: QVQLVESGGGVVQPGRSLRLSCAASGFTFSSYGMHWVRQAPGKEREWVAVISYDGSNKYYTDSVKGRFTISRDNSKNTLYLEMNSLRAEDTAVYYCARDLDYDVLTGDPVGGFDIWGQGTLVTVSS
V domain 2: QVQLVESGGGLVKPGGSLRLSCAASGFTFSDYYMSWIRQAPGKGLEWVSSISSSGDTIYYADSVQGRFTLSRDNAENSLFLQMNSLRAEDTAVYYCARGDAVSITGDYRGQGTLVTVSS
notes: as for B1
B4: BsAb-1 (IL2RB_F09C**IL2RG_F16A) (bispecific antibody, human IgG4, V domains shown)
V domain 1: QVQLQESGPGLVKPSGTLSLTCAVSGGSISSSDWWSWVRQPPGKGLEWIGEIDHSGSTNYNPSLMSRVTISVDKSKNQFSLKLSSVTAADTAVYFCGRGSWELSDAFDIRGQGTLVTVSS
V domain 2: QVQLVESGGGLVKPGGSLRLSCAASGFTFSDYYMSWIRQAPGKGLEWVSSISSSGDTIYYADSVQGRFTLSRDNAENSLFLQMNSLRAEDTAVYYCARGDAVSITGDYRGQGTLVTVSS
notes: as for B1
B5: BsAb-3 (IL2RB_F09G**IL2RG_F16C) (bispecific antibody, human IgG4, V domains shown)
V domain 1: QVQLQESGPGLVKSSETLSLTCTVSGGSISSSDWWSWVRQPPGKGLEWIGEIDHSGSTNYNPSLMSRVTISVDKSKNQFSLKLSSVTAADTAVYFCARGSWELTDAFDIRGQGTLVTVSS
V domain 2: QVQLVESGGGLVKPGGSLRLSCAASGFTFNDYYMSWIRQAPGKGLEWVSHISSSGSTIYYADSVKGRFTVSRDNANNSLYLQMHSLRAEDTAVYYCARGDAVSITGDYRGQGTLVTVSS
notes: as for B1
B6: BsAb-5 (IL2RB_F09K**IL2RG_F16B) (bispecific antibody, human IgG4, V domains shown)
V domain 1: QVQLQESSPGLVKPSETLSLTCTVSGGSISSSNWWSWVRQPPGKGLEWIGEISHSGSTNYNPSLKSRVTISVDKSKNQFSLRLSSVTAADTAVYFCGRGSWELTDAFDIRGQGTLVTVSS
V domain 2: QVQLVESGGGLVKPGGSLRLSCAASGFTFSDYYMSWIRQAPGKGLEWVSYISSSGSTIYYADSVKGRFTISRDNAKNSLYLQMNSLRAEDTAVYYCARGDAVSITGDYRGQGTLVTVSS
notes: as for B1

Columns and labels:
[1] = target: IL-21R (Sino Biological) (UniProt Q9HBE5 20-232); assay: Octet (BLI) off-rate, antibody captured on AHC sensors
Chain of IL-21R (Sino Biological) (Q9HBE5 20-232 limits assumed): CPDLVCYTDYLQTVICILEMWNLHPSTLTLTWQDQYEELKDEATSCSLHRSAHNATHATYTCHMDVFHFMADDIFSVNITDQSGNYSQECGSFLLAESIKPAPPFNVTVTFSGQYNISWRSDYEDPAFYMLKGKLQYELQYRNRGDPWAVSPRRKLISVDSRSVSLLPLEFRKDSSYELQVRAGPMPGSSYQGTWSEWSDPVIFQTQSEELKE
Experimental: (§1) All off-rate measurements were performed on an Octet Qk384 instrument (ForteBio), in 96-well microplates at 25° C. using anti-human IgG Fc capture (AHC, 18-5005) sensors with a shake speed of 1000 rpm. For off-rate determination, the antibodies/antibody fragments were loaded on the AHC sensors at 5 μg/mL. Following a short baseline in kinetics buffer (0.02% Tween20, 0.1% BSA, 0.05% sodium azide, 1X PBS). Offrate measurements were done for the following: human IL-2Rβ (AcroBiosystems), human IL-2Ry (Sino Biological), cynomolgus IL-2RP (Sino Biological), cynomolgus IL-2Rγ (expressed and purified in house using ExpiCHO expression system followed by Ni-NTA His-tag purification), mouse IL-2Rγ (Sino Biological), mouse IL-2Rβ (Sino Biological), human IL-2Rα (Sino Biological), IL-4R (Sino Biological), IL-7R (Sino Biological), IL-9R (R&D Systems) and IL-21R (Sino Biological). The following antibodies were used as positive controls to verify target binding and reagent quality: anti-human IL-9R (R&D Systems), anti-human IL-21R (R&D Systems), anti-human IL-7R (R&D Systems) and anti-human IL-4Ra (R&D Systems). The loaded sensors were then submerged in wells containing antigen at 100 nM concentration for association step. Dissociation was monitored in kinetics buffer. The capture surfaces were regenerated for 60 s. ForteBio data analysis software was used to fit the data to a 1:1 binding model to extract an association rate and dissociation rate.

[2] = target: T1, human IL-2Rα (Sino Biological) (human, UniProt P01589 22-213, limits assumed); assay: as above
T1 construct: Bought recombinant protein; also called IL2RA; CD25
T1 sequence: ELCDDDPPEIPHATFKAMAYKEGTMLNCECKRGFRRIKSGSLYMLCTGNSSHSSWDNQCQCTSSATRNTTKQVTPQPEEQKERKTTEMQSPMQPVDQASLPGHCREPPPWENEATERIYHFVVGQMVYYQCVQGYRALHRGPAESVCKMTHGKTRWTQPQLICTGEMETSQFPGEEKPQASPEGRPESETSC
Experimental: as §1

[3] = target: T2, human IL-2Rβγ receptor on primary human T-cells and NK-cells (PBMCs) (human, UniProt P14784 27-551; P31785 23-369); assay: flow cytometry cell binding on human CD8+ T-cells (PBMC), gMFI as fold over secondary antibody only
T2 construct: Endogenous receptor on primary cells; also called dimeric IL-2Rβγ receptor complex
T2 sequence 1: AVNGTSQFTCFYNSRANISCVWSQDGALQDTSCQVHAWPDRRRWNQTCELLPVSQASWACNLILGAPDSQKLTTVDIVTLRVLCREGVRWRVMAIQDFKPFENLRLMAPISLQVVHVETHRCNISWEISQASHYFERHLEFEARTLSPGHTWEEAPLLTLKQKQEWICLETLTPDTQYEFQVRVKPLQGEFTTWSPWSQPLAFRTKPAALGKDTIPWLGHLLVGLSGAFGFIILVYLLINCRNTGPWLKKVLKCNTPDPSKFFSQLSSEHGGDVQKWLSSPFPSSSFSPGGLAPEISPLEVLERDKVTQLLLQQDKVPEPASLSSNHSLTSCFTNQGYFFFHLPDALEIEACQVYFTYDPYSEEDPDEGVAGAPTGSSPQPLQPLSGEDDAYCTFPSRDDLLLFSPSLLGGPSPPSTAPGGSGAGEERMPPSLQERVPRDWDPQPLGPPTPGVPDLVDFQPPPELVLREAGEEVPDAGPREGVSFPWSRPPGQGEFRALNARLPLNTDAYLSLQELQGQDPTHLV
T2 sequence 2: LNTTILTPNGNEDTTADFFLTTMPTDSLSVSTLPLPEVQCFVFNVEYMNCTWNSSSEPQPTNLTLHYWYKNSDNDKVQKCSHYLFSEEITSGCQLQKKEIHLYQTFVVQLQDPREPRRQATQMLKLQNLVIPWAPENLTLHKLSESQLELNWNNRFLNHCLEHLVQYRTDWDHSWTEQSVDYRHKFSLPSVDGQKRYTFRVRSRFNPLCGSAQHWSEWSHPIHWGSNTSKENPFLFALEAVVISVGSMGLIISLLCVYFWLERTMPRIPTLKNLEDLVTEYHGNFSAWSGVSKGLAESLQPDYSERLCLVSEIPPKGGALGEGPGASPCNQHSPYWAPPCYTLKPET
Experimental: All washes and dilutions of cells, antibodies, and reagents were performed using flow buffer (1X PBS, 1% BSA, 0.1% NaN3, pH 7.4). Staining was performed in a round-bottom 96-well plate (Corning) seeded at 100,000 cells/well, and all incubations were performed at 4° C. or on ice. […] The cells were washed twice with 200 μL flow buffer. The cells were then incubated for 30 minutes with detection antibody (Goat F(ab′)2 Anti-Human IgG-PE, Southern Biotech) at 0.625 μg/mL in flow buffer. Following 2 more washes, the cells were resuspended in a final volume of 150 μL of flow buffer. The cells were analyzed on a BD FACSCelesta or a Guava easyCyte 8-HT flow cytometer. At least 3000 events were collected, and PE geometric mean fluorescence intensity was plotted as a fold over background (cells incubated with secondary detection antibody only). In some secondary screens involving human or cynomolgus PBMCs, an additional CD4 antibody (BioLegend) and/or CD8 antibody (BioLegend) was included to further characterize cell binding.

binding result [1]	binding result [2]	EC50 (read off the curve) [3]	Binder
no binding (tested: antigen at 100 nM)	no binding (tested: antigen at 100 nM)	~10 nM	B1
no binding (tested: antigen at 100 nM)	no binding (tested: antigen at 100 nM)		B2
no binding (tested: antigen at 100 nM)	no binding (tested: antigen at 100 nM)	~5 nM	B3
no binding (tested: antigen at 100 nM)	no binding (tested: antigen at 100 nM)		B4
no binding (tested: antigen at 100 nM)	no binding (tested: antigen at 100 nM)	~5 nM	B5
no binding (tested: antigen at 100 nM)	no binding (tested: antigen at 100 nM)		B6
